Assay results as given in patent publication US20260091068A1, “METHODS FOR TREATING AND PREVENTING DISEASES” (priority 2017, published 2026).

Test system: Bacteriophages of E. coli
Test: Inactivation of bacteriophages by nucleases and proteases, titer by Gratia's method (Example 22)
Type: cell-based
Conditions: E. coli phage treated with 10 mcg/ml enzyme for 30 min
Protocol: As a control, when the original phage is added back, the titer increases.

B1: Proteinase K: Proteinase K (Promega) (protein, UniProt P06873 106-384, looked up)
Proteinase K: AAQTNAPWGLARISSTSPGTSTYYYDESAGQGSCVYVIDTGIEASHPEFEGRAQMVKTYYYSSRDGNGHGTHCAGTVGSRTYGVAKKTQLFGVKVLDDNGSGQYSTIIAGMDFVASDKNNRNCPKGVVASLSLGGGYSSSVNSAAARLQSSGVMVAVAAGNNNADARNYSPASEPSVCTVGASDRYDRRSSFSNYGSVLDIFGPGTSILSTWIGGSTRSISGTSMATPHVAGLAAYLMTLGKTTAASACRYIADTANKGDLSNIPFGTVNLLAYNNYQA
Q: B1 was tested. Which “Phage titer (by Gratia's method)” value did it give?
A: 6 × 10^4
